Data from publication PMC6542541, “Broadly neutralizing antibodies from an individual that naturally cleared multiple hepatitis C virus infections uncover molecular determinants for E2 targeting and vaccine design” (PLoS Pathogens, 2019).

How the values were obtained:
HC-1 = assay: global alanine scanning epitope mapping; conditions: antibody at 1 μg/ml
HC84.26 = assay: global alanine scanning epitope mapping; conditions: antibody at 1 μg/ml
HMAb 212.1.1 = assay: global alanine scanning epitope mapping; conditions: antibody at 2 μg/ml
HMAb CBH-5 = assay: global alanine scanning epitope mapping; conditions: antibody at 1 μg/ml
HMAb CBH-7 = assay: global alanine scanning epitope mapping; conditions: antibody at 1 μg/ml
HMAb HC-11 = assay: global alanine scanning epitope mapping; conditions: antibody at 1 μg/ml
[1] = target: H77C 1a recombinant E1E2 (hepatitis C virus genotype 1a, isolate H77C) (UniProt P27958)
[2] = target: H77C 1a recombinant E1E2 (hepatitis C virus genotype 1a, isolate H77C) (UniProt P27958); remark: listed apart in the source
[3] = target: T1, complex of Hepatitis C virus genotype 1a P27958 (hepatitis C virus genotype 1a, isolate …, UniProt P27958); assay: ELISA; blocking of E2 binding to CD81-LEL: HMAb at 10 μg/ml pre-incubated with H77C 1a E1E2 lysate (1 μg/ml E2) for 20 min at 4°C, then added to CD81-LEL wells; conditions: one partner purified
T1 construct: envelope glycoprotein E1, cut product of the HCV polyprotein, genotype 1a isolate H77C; envelope glycoprotein E2, cut product of the HCV polyprotein, genotype 1a isolate H77C; residue numbers count on the H77C polyprotein; also called wt 1a H77C E1E2; 1a H77C E2

| Molecule | percent of parent (HC-1) [% WT] | percent of parent (HC84.26) [% WT] | percent of parent (HMAb 212.1.1) [% WT] | percent of parent (HMAb CBH-5) [% WT] | percent of parent (HMAb CBH-7) [% WT] | percent of parent (HMAb HC-11) [% WT] | % neutralization of 1a H77C HCVpp at 20 μg/ml [1] [%] | % neutralization of H77 (1a) Core-NS2 HCVcc at 25 μg/ml (FFU reduction) [2] [%] | IC50 of neutralization of H77 (1a) Core-NS2 HCVcc (FFU reduction) [2] [µg/mL] | binding result [3] |
| --- | --- | --- | --- | --- | --- | --- | --- | --- | --- | --- |
| H77C 1a recombinant E1E2 (from UniProt P27958) S424A | 53 | 75 | 41 | 10 | 163 | 18 | – | – | – | – |
| H77C 1a recombinant E1E2 (from UniProt P27958) S432A | – | 102 | 108 | 73 | 104 | 57 | – | – | – | – |
| H77C 1a recombinant E1E2 (from UniProt P27958) F442A | – | – | 148 | 1 | 113 | 1 | – | – | – | – |
| HMAb 212.1.1 (antibody) | – | – | – | – | – | – | 89 | 41 | 36 | – |
| H77C 1a recombinant E1E2 (from UniProt P27958) N434A | 102 | 97 | 18 | 92 | – | 88 | – | – | – | – |
| H77C 1a recombinant E1E2 (from UniProt P27958) L441A | 85 | 12 | 92 | 0 | 100 | 75 | – | – | – | – |
| H77C 1a recombinant E1E2 (from UniProt P27958) N548A | 88 | 85 | – | 51 | – | 70 | – | – | – | – |
| H77C 1a recombinant E1E2 (from UniProt P27958) A426G | 35 | 88 | 8 | 0 | 253 | 23 | – | – | – | – |
| H77C 1a recombinant E1E2 (from UniProt P27958) G547A | – | – | 57 | 30 | 28 | 36 | – | – | – | – |
| H77C 1a recombinant E1E2 (from UniProt P27958) H638A | 47 | 34 | 26 | 6 | 42 | 27 | – | – | – | – |
| H77C 1a recombinant E1E2 (from UniProt P27958) T534A | 88 | 116 | 162 | 125 | 101 | 83 | – | – | – | – |
| H77C 1a recombinant E1E2 (from UniProt P27958) P545A | 78 | 69 | 70 | 42 | 42 | 42 | – | – | – | – |
| H77C 1a recombinant E1E2 (from UniProt P27958) N532A | 82 | 108 | 152 | 108 | 101 | 71 | – | – | – | – |
| H77C 1a recombinant E1E2 (from UniProt P27958) N428A | 34 | 74 | 15 | 0 | 134 | 7 | – | – | – | – |
| H77C 1a recombinant E1E2 (from UniProt P27958) Y443A | 87 | 52 | 158 | 0 | 82 | 1 | – | – | – | – |
| H77C 1a recombinant E1E2 (from UniProt P27958) G436A | 73 | – | 103 | 11 | 78 | 0 | – | – | – | – |
| H77C 1a recombinant E1E2 (from UniProt P27958) W529A | 0 | 122 | 9 | 35 | 187 | 23 | – | – | – | – |
| H77C 1a recombinant E1E2 (from UniProt P27958) C429A | 0 | 24 | 0 | 2 | 157 | 0 | – | – | – | – |
| H77C 1a recombinant E1E2 (from UniProt P27958) G440A | 73 | 82 | 83 | 86 | 77 | – | – | – | – | – |

| Molecule | percent of parent (HC-1) [% WT] | percent of parent (HC84.26) [% WT] | percent of parent (HMAb 212.1.1) [% WT] | percent of parent (HMAb CBH-5) [% WT] | percent of parent (HMAb CBH-7) [% WT] | percent of parent (HMAb HC-11) [% WT] | % neutralization of 1a H77C HCVpp at 20 μg/ml [1] [%] | % neutralization of H77 (1a) Core-NS2 HCVcc at 25 μg/ml (FFU reduction) [2] [%] | IC50 of neutralization of H77 (1a) Core-NS2 HCVcc (FFU reduction) [2] [µg/mL] | binding result [3] |
| --- | --- | --- | --- | --- | --- | --- | --- | --- | --- | --- |
| H77C 1a recombinant E1E2 (from UniProt P27958) L433A | 97 | 122 | 2 | 128 | 103 | 103 | – | – | – | – |
| H77C 1a recombinant E1E2 (from UniProt P27958) L427A | 51 | 100 | 3 | 6 | 370 | 26 | – | – | – | – |
| H77C 1a recombinant E1E2 (from UniProt P27958) D535A | 14 | – | 6 | 0 | 116 | 1 | – | – | – | – |
| H77C 1a recombinant E1E2 (from UniProt P27958) E431A | 97 | 105 | 147 | 224 | 101 | 64 | – | – | – | – |
| H77C 1a recombinant E1E2 (from UniProt P27958) P544A | – | – | 72 | 45 | 39 | 41 | – | – | – | – |
| H77C 1a recombinant E1E2 (from UniProt P27958) L546A | 100 | 100 | 139 | 92 | 112 | 92 | – | – | – | – |
| H77C 1a recombinant E1E2 (from UniProt P27958) T425A | 51 | 69 | 18 | 1 | 101 | 10 | – | – | – | – |
| H77C 1a recombinant E1E2 (from UniProt P27958) G530A | 14 | 71 | 9 | 76 | – | 3 | – | – | – | – |
| H77C 1a recombinant E1E2 (from UniProt P27958) V636A | 89 | 72 | 77 | 34 | – | 63 | – | – | – | – |
| H77C 1a recombinant E1E2 (from UniProt P27958) T435A | 67 | 117 | 86 | 46 | 89 | 49 | – | – | – | – |
| H77C 1a recombinant E1E2 (from UniProt P27958) L438A | 77 | 122 | 87 | 4 | 89 | 1 | – | – | – | – |
| H77C 1a recombinant E1E2 (from UniProt P27958) A439G | 83 | 108 | 84 | 53 | – | – | – | – | – | – |
| H77C 1a recombinant E1E2 (from UniProt P27958) E637A | 246 | – | – | 40 | 145 | 202 | – | – | – | – |
| H77C 1a recombinant E1E2 (from UniProt P27958) W549A | – | – | 66 | 46 | 5 | 50 | – | – | – | – |
| H77C 1a recombinant E1E2 (from UniProt P27958) N430A | 39 | 85 | 143 | – | 155 | – | – | – | – | – |
| H77C 1a recombinant E1E2 (from UniProt P27958) W437A | 67 | 98 | 58 | 3 | – | 0 | – | – | – | – |
| H77C 1a recombinant E1E2 (from UniProt P27958) D533A | 73 | 93 | 99 | 54 | 77 | 66 | – | – | – | – |
| H77C 1a recombinant E1E2 (from UniProt P27958) R639A | 100 | 87 | 88 | 48 | 86 | 76 | – | – | – | – |
| HMAb HC-11 (antibody, V domains shown, germline IGHV1-69, 92% nucleotide identity; heavy chain CDR3; germline kappa 3-20, 96% nucleotide identity; light chain CDR3; also called domain B HMAb) VH: EVQLVESGAEVKKPGSSVKVSCKASGATFSSFIFSWVRQAPGQGPEWMGGIIPMFGTAKYAPRLQGRVTITADESTSTAYMDLSSLRFEDTAVYYCAMEVPGFCRGGSCSGYMDVWGKGTLVTVSP VL: AAVLTQSPGTLSLSPGERATLSCRASHSVSSSNLAWYQQKPGQAPRLLMYGASRRATGIPDRFSGSGSGTDFTLTISRLEPEDFAVYYCQQYGSSPITFGQGTRLDIK | – | – | – | – | – | – | – | – | – | binds |
